Where a chain is given by its changes, count along the chain named.
T1: rat PDGFRB extracellular domain (rat, UniProt Q05030 32-531)
T1 construct: extracellular domain; also called rPDGFRB-ECD; rat PDGFRB ectodomain
T1 sequence (looked up): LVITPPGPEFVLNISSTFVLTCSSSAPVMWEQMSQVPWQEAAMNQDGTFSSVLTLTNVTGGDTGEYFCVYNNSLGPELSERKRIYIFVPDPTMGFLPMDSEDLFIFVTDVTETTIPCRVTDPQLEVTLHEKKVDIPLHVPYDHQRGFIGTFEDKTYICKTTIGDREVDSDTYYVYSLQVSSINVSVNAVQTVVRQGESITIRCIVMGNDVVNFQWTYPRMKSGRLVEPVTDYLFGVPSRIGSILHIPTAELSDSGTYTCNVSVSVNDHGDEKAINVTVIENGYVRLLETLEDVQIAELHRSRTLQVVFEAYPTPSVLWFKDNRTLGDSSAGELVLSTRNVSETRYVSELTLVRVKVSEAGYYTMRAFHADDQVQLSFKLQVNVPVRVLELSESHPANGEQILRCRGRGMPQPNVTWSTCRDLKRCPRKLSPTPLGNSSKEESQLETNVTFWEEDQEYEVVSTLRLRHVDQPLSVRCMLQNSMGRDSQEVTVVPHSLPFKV

B1: SP36P (VHH)
VHH: EVQLVESGGGLVQAGGSLRLSCTPSITTAGTTIMAWFRQAPGNEREFVAAIWGSKTAYGDSMKGRLTISRDNVRDNGQKTVFLQMNNLQLQDTATYYCAASSGGYVHSSTSYEIWGRGTQVTVSS
notes: Llama VHH; on phage in the phage ELISA
B2: SP31P (VHH)
VHH: EVQLVESGGGLVQAGGSLRLSCAASRGTFGTYIMGWFRQAPGKEREFVAAISWRGANTYYGYSVKGRFTISRDNAKNTMYLQMADLKPEDTADYYCGVHLNGTPYYYASGYRYWGQGTQVTVSS
notes: as for B1
B3: SP30P (VHH)
VHH: B2 VHH with Y32D
notes: as for B1
B4: SP32P (VHH)
VHH: EVQLVESGGGTVQAGDSLRLSCTASGRTFSTYTMGWFRQAPGKERVVVAVNTWNNFTVHQPSVKGRFTMSRDNTKNSIYLQMDSLKPEDTAVYYCAASAKGTARYDYWGQGTQVTVSS
notes: as for B1
B5: SP27P (VHH)
VHH: EVQLVESGGGLVQIGDSLRLSCAASGGTFNRYGMGWFRQAPGKEREFVAAIRWDGVDTNYADFVKGRFTISRYNAKNTAYLQMNSLKPEDTAVYYCAADRRGLYTKHAHRYDYWGQGTQVTVSS
notes: as for B1
B6: SP29P (VHH)
VHH: EVQLVESGGGLVQAGDSLRLSCTVSGRTFNTYVTGWFRQAPGKEREFVAAIHQIGSTYYRNSVKGRFTISRDGAKDTVYLQMNNLKPEDSAVYYCAAGNGGYVMSDIAYGTWGQGTQVTVSS
notes: as for B1
B7: SP35P (VHH)
VHH: EVQLVESGGGLVQPGGSLRLSCAASGSLGSNNPMAWYRQAPGKERELVASISSAYRTHYADFVKGRFTISRDSPKNTVSLQMNNLKPEDTAVYYCGIFVSARNYWGKGTQVTVSS
notes: as for B1
B8: SP25P (VHH)
VHH: EVQLVESGGGLVQPGGSLRLSCAASESIFSINAMGWYRQTPGKQREMVASITPGGFTIYADSVKGRFTISRDNAKNTLYLQMNNLRFEDTAVYYCNAFAGSATSYHDFGSWGQGTQVTVSS
notes: as for B1
B9: SP14P (VHH)
VHH: EVQLVESGGGLVQAGDSLRLSCVVSGLTFSRYGMGWFRQATGKEREFVGGISVGSSGTMYPNSVKGRFTISRDNAKSTVYLQMNSLKPEDTAVYFCAAIDQGSFVQQRDYRYWGQGTQVTVSS
notes: as for B1
B10: SP12P (VHH)
VHH: EVQLVESGGGLVQAGGSLRLSCVISGRTSPTYPMGWFRQSPGNEREFVASINWSGGWRNYADSVKGRFTISRDDAKNTVYLQMNSLKPEDTAVYYCARGQYSSGTPVYAHEYAYWGQGTQVTVSS
notes: as for B1
B11: SP20P (VHH)
VHH: B10 VHH with G66D
notes: as for B1
B12: SP08P (VHH)
VHH: EVQLVESGGGLVQAGGSLRLSCAASGRTFNGYAMAWFRQAPGKERDFVASITWSYGYTYYADSAQGRFTISRDSAKNTVYLEMNSLKPEDTAVYYCAADPKASRFRILRQYAHWGQGTQVTVSS
notes: as for B1
B13: SP05P (VHH)
VHH: EVQLVESGGGLVQAGGSLRLSCAASGRTSFSGYAMAWFRQAPGKERDFVASITWSYGYTYYTDSAQGRFTISRDSAKNTVYLEMNSLKPEDTAVYYCAADPKASRFRILREYAYWGQGTQVTVSS
notes: as for B1
B14: SP13P (VHH)
VHH: EVQLVESGGGLVQPGGSLRLSCAASESIFSINYMAWYRQAPGKQRELVAFSIDGSSTNYVDSVRGRFTASRDNAENTLYLQMNSLKPEDTAVYYCYAQGNTWAAGVWGQGTQVTVSS
notes: as for B1
B15: SP01P (VHH)
VHH: EVQLVESGGGLAQAGGSLRLSCVASGNIDSANGMAWYRQAPGKQRELVAHITSGTSYYVASVEGRFTISRANAKDTWYLQMNSLKPEDTGVYYCFPIGLSAHWSQGTQVTVSS
notes: as for B1
B16: SP10P (VHH)
VHH: EVQLVESGGGLVQAGGSLRLSCAASGRTFNGYAMGWFRQAPGKERDFVAAITWSYGYTHYAESVKGRFSISRDSANNMVYLEMNSLKPEDTAVYYCAADPKASRFRTLRRYDYWGQGTQVTVSS
notes: as for B1
B17: SP07P (VHH)
VHH: EVQLVESGGGSVQTGGSLRLSCAASGRSFSTYAMAWFRQAPGKEREFVAAINRRATDTVYADSAKGRFIISRDNDKNTVYLQMDSLKTEDTAVYYCAAAKNAYDWRWDRLRDRDYWGQRGQGTQVTVSS
notes: as for B1
B18: SP17P (VHH)
VHH: EVQLVESGGGLVQPGGSLRLSCAASGLTFVNYAMGWFRQAPGKERELVAGIASSGRIYYADSVAGRFTISRDNARNTVNLQMNSMKPEDTAVYYCAGRRSFSSTSAADYNYWGQGTQVTVSS
notes: as for B1
B19: SP21P (VHH)
VHH: EVQLVESGGGLVQPGGSLRLSCVVSGSSFSSYTMGWFRRAPGKQRELVAGVSTVGDTAAADSVKGRFTISRDNAKNTVYLQMNSLKPEDTAVYYCNTYPHAYLEWGQGTQVTVSS
notes: as for B1
B20: SP11P (VHH)
VHH: EVQLVESGGGLVQAGDSLRLSCAASGRTFSSYPIAWFRQAPGKEREFVAAITSSGLTTYYANVVKGRFAISRDNAKDTVYLQMNSLKPEDTAVHYCATSNGFLSGRDIYQHNKYIYWGQGTQVTVSS
notes: as for B1
B21: SP15P (VHH)
VHH: EVQLVESGGGLVQAGGSLRLSCAASGRAFGGPYMAWFRQTPGKGREFVAAISPSSVYTFYQDSVKGRFTISRDNTKNTAYLQMNSLKPEDTAVYYCAAEAAGEVRLETSYKYWGQGTQVTVSS
notes: as for B1
B22: SP23P (VHH)
VHH: EVQLVESGGELVQAGGSLRLSCAVSGRTLTSYPMGWFRQAPGKEREFVAAISWSGGDTMYADSVKGRFTISRDNSKNTVYLQMNSLKPEDTADYYCARRRYSSGISRHLVDYEYWGQGTQVTVSS
notes: as for B1

What follows are binders tested against T2, rat PDGFRB on SCC VII cells (rat, UniProt Q05030 32-1097) (assay: binding assay on SCC VII cells transfected with rat PDGFRB (Example 4)).
T2 construct: whole, on cells; also called rPDGFRB; SCC-rPDGFRB

Binder | Kd [nM]
B1 | 76.6
B2 | 31.8

The binders below were run against T1, rat PDGFRB extracellular domain (assay: binding assay on immobilised rat PDGFRB ectodomain, apparent affinity (Example 4)).

Binder | Kd [nM] | binding result
B1 | 31 | –
B2 | 276 | –
B3 | 12.2 | –
B4 | – | binds
B5 | 25.5 | –
B6 | – | binds
B7 | – | binds
B8 | – | binds

These binders were tested against T3, human PDGFRB on LX-2 cells (human, UniProt P09619) (assay: binding assay on the human hepatic stellate cell line LX-2 (Example 4)).
T3 construct: full-length receptor on the cell surface; The list has human PDGFRB only on SCC VII cells
T3 sequence (P09619 33-1106 limits assumed): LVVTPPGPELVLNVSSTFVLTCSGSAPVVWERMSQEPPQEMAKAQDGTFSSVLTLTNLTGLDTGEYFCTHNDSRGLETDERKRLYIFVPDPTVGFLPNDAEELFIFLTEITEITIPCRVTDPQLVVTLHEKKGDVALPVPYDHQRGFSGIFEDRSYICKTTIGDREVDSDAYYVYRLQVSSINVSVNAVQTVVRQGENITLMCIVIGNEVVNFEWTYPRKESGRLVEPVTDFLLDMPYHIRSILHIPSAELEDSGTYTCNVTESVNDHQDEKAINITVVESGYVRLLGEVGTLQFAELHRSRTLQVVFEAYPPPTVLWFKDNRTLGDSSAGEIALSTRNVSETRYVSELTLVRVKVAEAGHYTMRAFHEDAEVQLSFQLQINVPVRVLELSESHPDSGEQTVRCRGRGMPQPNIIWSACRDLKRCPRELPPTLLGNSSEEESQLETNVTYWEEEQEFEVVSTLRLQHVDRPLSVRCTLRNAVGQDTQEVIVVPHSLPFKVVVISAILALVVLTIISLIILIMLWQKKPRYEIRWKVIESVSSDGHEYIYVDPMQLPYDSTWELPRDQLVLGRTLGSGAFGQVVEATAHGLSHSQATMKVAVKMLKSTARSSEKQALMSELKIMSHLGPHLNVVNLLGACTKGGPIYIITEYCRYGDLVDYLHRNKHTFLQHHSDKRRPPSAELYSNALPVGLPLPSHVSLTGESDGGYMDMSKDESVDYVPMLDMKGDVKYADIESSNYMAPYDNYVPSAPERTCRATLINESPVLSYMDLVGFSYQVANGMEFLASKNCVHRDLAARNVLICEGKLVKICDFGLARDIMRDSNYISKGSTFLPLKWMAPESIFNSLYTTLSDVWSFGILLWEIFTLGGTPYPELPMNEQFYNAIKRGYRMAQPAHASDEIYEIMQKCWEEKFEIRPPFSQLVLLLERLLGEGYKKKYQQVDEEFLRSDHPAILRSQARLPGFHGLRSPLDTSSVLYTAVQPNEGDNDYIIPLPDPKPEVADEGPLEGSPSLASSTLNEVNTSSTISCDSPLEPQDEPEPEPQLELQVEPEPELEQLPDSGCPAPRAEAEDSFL

Binder | Kd [nM]
B9 | 3.1
B10 | 0.6
B11 | 53.6
B12 | 60.2
B13 | 193

Each binder was assayed against T4, human PDGFRB on SCC VII cells (human, UniProt P09619 33-1106) (assay: binding assay on SCC VII cells transfected with human PDGFRB (Example 4)).
T4 construct: whole, on cells; also called hPDGFRB; SCC-hPDGFRB
T4 sequence (P09619 33-1106): as the sequence (P09619 33-1106 limits assumed) above

Binder | Kd [nM]
B9 | 0.6
B10 | 0.3
B11 | 1
B12 | 0.5
B14 | 10.4
B13 | 1.4
B15 | 7.8
B16 | 0.9
B17 | 62.3

The binders below were run against T5, human PDGFRB extracellular domain (human, UniProt P09619 33-532) (assay: binding assay on immobilised human PDGFRB ectodomain, apparent affinity (Example 4)).
T5 construct: extracellular domain; also called hPDGFRB-ECD; human PDGFRB ectodomain
T5 sequence (P09619 33-532): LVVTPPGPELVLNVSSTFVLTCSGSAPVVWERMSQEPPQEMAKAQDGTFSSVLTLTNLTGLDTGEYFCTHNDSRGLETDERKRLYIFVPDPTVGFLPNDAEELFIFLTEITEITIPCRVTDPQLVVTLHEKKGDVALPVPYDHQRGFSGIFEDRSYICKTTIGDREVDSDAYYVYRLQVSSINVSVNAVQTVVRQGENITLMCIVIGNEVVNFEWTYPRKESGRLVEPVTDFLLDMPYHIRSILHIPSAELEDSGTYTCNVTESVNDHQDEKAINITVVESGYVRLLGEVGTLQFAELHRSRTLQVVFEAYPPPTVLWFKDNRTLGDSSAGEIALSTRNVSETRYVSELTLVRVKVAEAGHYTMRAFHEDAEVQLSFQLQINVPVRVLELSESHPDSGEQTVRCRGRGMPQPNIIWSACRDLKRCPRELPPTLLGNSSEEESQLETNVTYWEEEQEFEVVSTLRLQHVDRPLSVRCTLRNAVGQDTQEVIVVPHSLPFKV

Binder | binding result | Kd [nM]
B18 | binds | –
B9 | – | 8.6
B19 | binds | –
B11 | – | 3.8
B14 | – | 9.3
B13 | – | 9.2
B20 | binds | –
B15 | – | 20.4
B17 | – | 10.1
B21 | binds | –
B22 | binds | –

Source: patent US20220143204A1 (LINXIS B V, published 2022)
